Reference: the RNAGym collection of RNA variant scans (doi:10.1073/pnas.2313332121)

B1: TPR t1 (parent)
chain: GACCAAUCUGCCCUCAGAGCUCGAGAACAUCUUCGGAUGCAGAGGAGGCAGGCUUCGGUGGCGCGAUAGCGCCAACGUCCUCAACCUCCAAUGCAUCCCACCACAUGAUGAUGCCUGAAGAGCCUUGGUUUUUUG

Variants of: B1
Experiment: polymerase ribozyme fitness, log enrichment relative to wild type (log ratio); higher = more active; in vitro selection for triplet polymerase activity
In short: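 Mutant libraries of each subunit of a heterodimeric triplet polymerase ribozyme were built by PCR and transcribed. Each library went through one round of in vitro selection in triplicate: annealing with biotinylated primer, partner subunit and triplets, frozen incubation at −7 °C, gel excision of extended constructs, streptavidin-bead capture and RT-PCR. Input and output libraries were Illumina-sequenced; only genotypes with ≥10 input reads and ≥1 read per output were kept. Fitness is log2(genotype enrichment/wild-type enrichment), using inverse-variance-weighted replicate averages.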

Variant | polymerase ribozyme fitness (log ratio)
GACCAAUCUGCCCUCAGAGCUCGAGAACAUCUUCGGAUGCAGAGGAGGCAGACUUCGGUGGCGCGAUAGCGCCAACGUCCUCAACCUCCAAUGCAUCCCACCAUAUGAUCAUGCCUGAAGAGCCUUGGUUUUUUG [G52A C104U G110C] | -2.99
GACCAAUCUGCCCUCAGAGCUCGAGAACAUCUUCGGAUGCGGAGGAGGCAGGCUUCGGUGGCGCGAUAGCGCCAACGUCCUCUACCUCCAAUGCAUCCUACCACAUGAUGAUGCAUGAAGAGCCUUGGUUGUUUG [A41G A83U C99U C115A U131G] | -4.22
GACCAACCUGCCCUCAGAGCUCGAGAACAUCUUCGGAUGCAAAGGAGGCAGGCUUCGGUGGCGCGAUAGCGCCAAUGUCCUCAACCUCCAAUGCAUCCCAUCACAUGAUGAUGCCUGAACAGACUUGGUUUUUUG [U7C G42A C76U C101U G120C C123A] | -3
GACCAAUCUGCCUUCAGAGAUCGAGAACAUCUUCGGAUGCAGAGGAGGCAGGCUUCGGUGGCGCGAUAGCGCCAACGUCCUCAACCUCCAAUGCAUCCCACCACAUGAUGAUGCCUGAAGAGCCUUGGUUUUUUG [C13U C20A] | -2.74
GACCAAUCUGCCCUCAGAGUUCGAGAACAUCUUCGGAUGCAGAGGAGGCAGGCUUCGGUGGCCCGAUAGCGCCAACGUCCUCACCCUCCAAUGCAUCCCACCACUUGAUGAUGCCUGAAGAGCCUUGGUUUUUUG [C20U G63C A84C A105U] | -4.52
GACCAAUUUGCCCUCAGAGCUCGAGAACAUCUUCGGAUGCAGAGGAGGCAGGCUUCGGUGGCGCGAUAGCGCCAACGUCCUCAACCUCCAAUGCAUCCCACCACAUGAUGAAGCCUGAAGAGCCUUGGUUUUUUG [C8U U112A] | 1.33
GACCAAUCUGCCCUCAGAGCUCGAGCACAUCUUCGAAUGCAGAGGAGGCAGGCUUCGGUGACGCGAUAGCGCCAACGUCCUCAACCUCCAAUGCAUCCCACCACAUGAUGAUGCCUGAAGAGCCUUGGUUUUUUG [A26C G36A G61A] | -5.9
GACCAAUCUGGCCUCAGAGCUCGAGAACUUCUUCGGAUGCAGAGGAGGCAGGCUUCGGUGGCGCGAUAGCGCCAACGUCCUCAACCUCCAAUGCAUCCCACCACAUGAUGAUGCCUCAAGAGCCUUGGUUUUUUG [C11G A29U G117C] | -3.19
GACCAAUCUGCCCUCAGAGCUCGAGAACAUCUUCGGAUGCAGAGGAGGCAGGCUUCGGUGCCGCGAUAGCGCCAACGACCUCAACCUCCAAUGCAUCCCACCACAAGAUGAUGCCUGAAAAGCCUUGGUUUUUUG [G61C U78A U106A G120A] | 0.446
GACCAAUCUGCCCUCAGAGCUCGAGAACAUCUUCGGAUGCAGAGGAGGUAGGCUUCGGUGGCGCGAUAGCGCCAACGUCCUCAACCUCCAAUGUAUCCCACCACAUGAUGUUGCCUGAAGAGCCUUGGUUUUUUG [C49U C94U A111U] | -5.05
GACCAAUCUGCCCUCAGAGCUCGAGAACAUCUUCGGAUGCAGAGGAGGCAGGCUUCGGUGGCGCGAUAGCGCCAACGUACUCAACCUCCAAUGCAUCCCACCACAUGAUGAUACCUGAAGAGCGUUGGUUUUUUG [C79A G113A C124G] | -3.89
GACCAAUCUGCCCUCAGAGCUCGAGAACAUCUUCGGAUGCAGAGGAGGCAGGCUUCGGGGGCGCGAUAGCGCCAACGUCCUCAACCUCCAAUGCAUCCCACCACAUGAUGAUGACUGAAGAGCCUUGGUUUUUUG [U59G C114A] | -1.42
GACCAAUCUGCCCUCAGAGCUCGAGAACAUCUUCGGAUGCAGAGGAGGCAGGCUUCGGUGGCGCGAUAGCGCCAACGUCCUCAACCGCCAAUGCAUCCCACCACAUGAUUAUGCCUGAAGAGCCUUGGUUUUUUG [U87G G110U] | -0.69
GCCCAAUCUGCCCUCAGAGCUCGAGAACAUCUUCGGAUGCAGAGGAGGCAGGCUUCGGUGGCGCGAUAGCGCCAACGUCCUCAACCUCCAAUGCAUCCCACCACAUGAUGAUGCCUGAAGAGCCUUUGUUUUUUG [A2C G127U] | -1.27
GACCAAUCUGCCCUCAGAGCUCGAGAACAUCAUCGGAUGUAGAGGAGGCAGGCUUCGGUGGCGCGAUAGCGCCAACGUCCUCAACCUCCAAUGCAUCCCAACACAUGAUGAUGCCUGAAGAGCAUUGGUUUUUUG [U32A C40U C101A C124A] | -3.05
GACCAAUUUGCCCUCAGAGCUCGAGAACAUCUUAGGAUGCAGAGGAGGCAGGCUUCGGUGGCGCGAUAGCGCCAACGUCCUCAACCUCCAAUGCAUCCCACCACAUGAUGAUGCCUGAGGAGCCUUGGUUUUUUG [C8U C34A A119G] | -1.9
GACCUAUCUGCCCUCAGAGCUCGAGAACAUCUUCGGGUGCAGAGGAGGCAGGCUUCGGUGGCGCGAUAGCGCCAACGUCCUCAACCUCCAAUGCAUCCCACCACAUGAUGAUGCCUGAAGAGCCUUGGUUUUUUG [A5U A37G] | 0.0705
GUCCAAUCUGCCCUCAGAGCACGAGAACAUCUUCGAAUGCAGAGGAGGCAGGCUUUGGUGGCGCGAUAGCGCCAACGUCCUCAACCUCCAAUGCAUCCCACCACAUGAUGAUGACUGAAGAGCCUUGGUUUUUUG [A2U U21A G36A C56U C114A] | -3.98
GACCAAUCUGCCCUCACAGCUCGAGAACAUCUUCGGAUGCAGAGGAGGCAGGCUUUGGUGGCGCGAUAGCGCCAACGUCCUCAACCUCUAAUGCAUCCCACCACAUGAUGAUGCCUGAAGAGCCUUGGUUUUUUG [G17C C56U C89U] | -3.95
GACCAAUCUGCCCUCAGAGCUCGAGAACAUCUUCGGAUGCAGAGGAGGCUGGCUUCGGUGGGGCGAUAGCGCCAACGUCCUCAACCUCCAAUGCAUCCCACCACAUGAUGAGGCCUGAAGAGCCUUGGUUUUUUG [A50U C62G U112G] | -5.81
GACCAAUCUGCCCUCAGAGCUCGAGAACAUCUUCGGAUGCAGAGGAGGCAGGCUUCGGUGGCUCGAUAGCGCCAACGUCCUCAACUUCCAAUGCAUCCCACCACAUGAUGAAGCCUGAAGAGCCUUGGUUUUUUG [G63U C86U U112A] | -0.646

Variant | polymerase ribozyme fitness (log ratio)
GACCAAUCUGCCCUCAGAGCUCGAGAACAUCUUCGGAUGCAGAGGAGGCUGGCUUCGGUGGCGCGAUAGCGCCAACGUCCUCAACCUCCAAUGCAUCUCACCACAUAAUGAUGCAUGAAGAGCCUUGGUUUUUUG [A50U C98U G107A C115A] | -5.98
GACCAUUCUGCCCUCAGAGCUCGAGAACAUCUUCGGGUGCAGAGGAGGCAGGCUUCGGUGGCGCGAUAGCGCCAACGUCCUCAACCUCCAAUGCAUCCCACCACAUGAUGAUGCCUGAAGAGCCUUCGUUUUUUU [A6U A37G G127C G135U] | -1.84
GACCAAUCUGCCCUCAGAGCUCGAGAACAUCUUCGGAUGCAGAGGAGGCAGGCUUCGGUGGCGCGAUAGCGCCAACGUCCUCAACCUCCAAUGCAUCCCACCACAUGAUGAUGUCUGAAGAGCCUUGGUAUUUUG [C114U U130A] | -2.7
GACCAAUCUGCCCUCAGAGCUCGAGAACAUCUUCGGAUGCAGAGGAGGCAGGUUUCGGUGGCGCGAUGGCGCCAACGUCCUCAACCUCCAAUGCAUCCCACCACAUGAUGAUGCCUGAAGAGCCUUGGUUUUUUG [C53U A68G] | -2.76
GACCAAUCUGCCCUCAGAGCUCGAGAACAUCUUCGGAUGUAGAGGAGGCAGGCUUUGGUGGCGCGAUAGCGCCAACGCCCUCAACCUCGAAUGCAUCCCACCACAUGAUGAUGCCUGAAGAGCCUUGGUUUUUUG [C40U C56U U78C C89G] | -2.2
GACCAAUCUGCCCUCAGAGCUCGAGAACAUCUUCGGAUGCAGAGGAGGCAGGCUUCGGUGGCGCGAUAGCGCCAACCUUCUCAACCUCCAAUGCAUCCCACCACAUGAUGAUGCCUGAAGAGCCUUGGUUUUUUG [G77C C79U] | 0.563
GACCAAUCUGCCCUCAGAGCUUGAGAACAUCUUCGGAUGCAGAGGAGGCAGGCUUCGGUGGCGCGAUAGCGCCAACGUCCUCAACCUCCAAUGCAUCCCCCCACAUGAUGAUGCCUGAAGAGCCUUGGUUUUUUG [C22U A100C] | -4.93
GACCAAUCUGCCCUCAGAGCUCGAGAAGAUCUUCGGAUGCAGAGGAGCCAGGCUUCGGUGGCGCGAUAGCGCCAACGUCCUCGUCCUCCAAUGCAUCCCACCACAUGAUGAUGCCUGAACAGCCUUGGUUUUUUG [C28G G48C A83G A84U G120C] | -2.29
GACCAAUCUGCCCUCAGAGCUCGAGAACAUCUUCGGAUGCAGAGGAGGCAGGCUUCGGUGGCGCGAUAGCGACAACGUCCUCAACCUCCAAUGCAUCCCACCACAUGAUGAUGCCUGAAGAGCCUUGGUUAUUUG [C72A U131A] | -0.165
GACCAAUCUGCCCUCAGAGCUCGAGAACAUCUUCGGAUGCAGAGGAGGCAGGCUUCGGUGGUGCGAUAGCGCCAACGUCCUUAACCUCCAAUGCAUCCCACCACAUGAUGAUGCCUGAAGAGCAUUGGUUUUUUG [C62U C82U C124A] | 1.29
GACCAAUCUGCCCUCAGAGCUCGAGAACAUCUUCGGAUGCAGAGGAGGCAGGCUUCGGUGGCACGAUAGCGCCAACGUCCUCAACCUCCAAUGCAUCCCACCACAUGAUGAUGCCUGAAGAGCCUUGGAUUUUUG [G63A U129A] | -1.64
GACCAAUCUGCCCUCAGAGCUCGAGAACAUCUUCGGGGGCAGAGGAGGCAGGCUUCGGUGUCGCGAUAGCGCCAACGUCCUCAACCUCCAAUGCAUCCCACCAUAUGAUGAUGCCUGAAGAGCGUUGGUUUUUUG [A37G U38G G61U C104U C124G] | -4.81
GACCAAUCUGCCAUCAGAGCUCGAGAACAUCUUCGGAUGUAGAGGAGGGAGGCUUCGGUGGCGCGAUAGCGCCAACGUCCUCAACCUACAAUGCAUCCCACCACAUGAUGAUGCCUGAAGAGCCUUGGUUUUUUG [C13A C40U C49G C88A] | -3.8
GACCAGUCUGCCCUCAGAGCUCGAGAACAUCUUCGGAUGCAGAGGUGUCAGGCUUCGGUGGCGCGAUAGCGCCAACGUCCUCAACCUCCAAUGCAUCCCAUCACAUGAUGAUGCCCGAAGAUCCUUGGUUUUUUG [A6G A46U G48U C101U U116C G122U] | -5.6
GACCAAUCUGCCCUCAGAGCUCGAGAACAUCUUCGGAUGCAGAGGAGGCUGGCUUCGGUCGCGCGAUAGCGCCAACGUCCUCAACCUCCAAUGCAUCCCACCACAUGAUGAUGCCUGAAGAGACUUCGUUUCUUG [A50U G60C C123A G127C U132C] | -0.878
GACCAAUCUGCCCUCAGAGCUCGAGAACAUCUUCGGAUGCAGACGAGGCAGGCUUCGGUGGCGCGAUAUCGCCAGCGUUCUCAACCACCAAUGCAUUCCACCACAUGAUGAUGCCUGAAGAGCCUUGGUUUUUUU [G44C G69U A75G C79U U87A C97U G135U] | -5.55
GACCAAUCUGCCCUCAGAGCUCGAGAACAUCUUCGGAUGCAGAGGAGGCAGGAUUCGGUGGCGCGAUAGCGCCAACGUCCUCAACCUCUAAUGCAUCCCACCACACGAUGAUGCCUGAAGAGCCUUGGUUUUUUG [C53A C89U U106C] | -0.0062
GACCAAUCUGCCCUCAGAGCUCGAGAACAUCUUCGGAUGCAGAGGAGGCAUGCUUGGGUGGCGCGAUAGCGCCAACGUCCUCAACCUCCAAUGCAUCCCACCACAUGAUGAUGCCUGAAGAGCCUUGGUUUUUUG [G51U C56G] | -5.36
GACCAAUCUGCCUUCAGAGCUCGAGAACAUCUUCGGAUGCAGAGGAGGCAGGCUUCGGUGGCGCGAUAGCGCCAACGUCCUCAACCUCCAAUGCAUCCCACCACAUGAUGAUGCCUGAAGAGCCUUCGUUUUUUG [C13U G127C] | -1.18
GACCAAUCUGCCCUCAGAGCUCGAGAACAUGUUCGGAUGCAGAGGAGUCAGGCUUCGGUGGCGCGAUAGCGUCAACGUCCUCAACGUCCAAUGCAUCCCCCCACAUGAUGAUGCCUGAACAGCCUUGGUUUUUUG [C31G G48U C72U C86G A100C G120C] | -7.02
GAUCAAUCUGCCCUCAGAGCUCGAGAACAUCUUCGGAUGCAGAGGAGGCAGGCUUCGGUGGCGCGAUAGCGCCAACGUCCUCAACGUCCAAUGCAUCCCACCACAUGAUGAUGCCUGAAGAGCCUUGGUUUUUUG [C3U C86G] | -2.21
